Reference: paper PMC12746149, “Gluebodies Offer a Route To Improve Crystal Reliability and Diversity through Transferable Nanobody Mutations That Introduce Constitutive Close Contacts” (ACS Central Science, 2025)
Numbering of substitutions follows the chain as printed. Numbers in names are those of the source. Where two headings read alike, the source gives them in different places.

B1: nanobody of the MAGEB1 complex (PDB 6R7T) (VHH)
VHH: QVQLQESGGGLVQPGGSLRLSCAASGFTFSTYAMSWFRQAPGKGLEWVASINSSGGGIQSYADSVKGRFTISRDNAKNTLYLQMNSLEPEDTAVYYCAAAAWRVGTYDYRGQGTQVTVSS
notes: naïve (not engineered) nanobody scaffold
B2: RECQL5 nanobody variant G4-043 (VHH)
VHH: QVQLVENGGGCVQATGSLRLSCAASGSIFSINRMTWYRQAPGKEREWVAAITSGGSTNYADSVKGRFTISRDSAKGTVYLQMNSLKPEDTAVYYCEAYGTYTLAPTGEGEYDDYWGQGTQVMVS
notes: the mutated chain is in PDB 7ZMS; numbers count on: IMGT numbering; G4 and G5 constructs were amplified from the synthesised DNA fragments with a different set of primers; source: E. coli KRX, purified (Ni-NTA, TEV cleavage, reverse Ni-NTA); not shown: MBP (inferred from the G3 scaffold), N-terminal, cleaved; His6 (inferred from the G3 scaffold), N-terminal, cleaved
B3: RECQL5 nanobody variant G3-048 (VHH)
VHH: B2 VHH with M122T
notes: the mutated chain is in PDB 7ZMN; numbers count on: IMGT numbering; synthesised DNA in pNIC-MBP2-LIC; no ENLYFQ tail; source: E. coli KRX, purified (Ni-NTA, TEV cleavage, reverse Ni-NTA); not shown: MBP, N-terminal, cleaved; His6, N-terminal, cleaved
B4: RECQL5 nanobody variant G2*-011 (VHH)
VHH: B2 VHH with T15G, R19K, D61Y, S73N, G76N, M122T
notes: the mutated chain is in PDB 7ZMR; source: E. coli KRX, purified (Ni-NTA, TEV cleavage, reverse Ni-NTA); not shown: MBP (from the vector pNIC-MBP2-LIC), N-terminal, cleaved; His6 (from the vector pNIC-MBP2-LIC), N-terminal, cleaved
B5: RECQL5 nanobody variant G2*-006 (VHH)
VHH: B2 VHH with C11N, T15G, D61Y, S73N, G76N, M122T
notes: the mutated chain is in PDB 7ZMQ; source: E. coli KRX, purified (Ni-NTA, TEV cleavage, reverse Ni-NTA); not shown: MBP (from the vector pNIC-MBP2-LIC), N-terminal, cleaved; His6 (from the vector pNIC-MBP2-LIC), N-terminal, cleaved
B6: RECQL5 nanobody variant G3-052 (VHH)
VHH: B2 VHH with T15G, Q81Y, M122T
notes: the mutated chain is in PDB 7ZMO; numbers count on: IMGT numbering; synthesised DNA in pNIC-MBP2-LIC; no ENLYFQ tail; source: E. coli KRX, purified (Ni-NTA, TEV cleavage, reverse Ni-NTA); not shown: MBP, N-terminal, cleaved; His6, N-terminal, cleaved
B7: 3A02 gluebody (Nb 3A02 nanobody with the Gluebody mutations S7N, Q14K and T125M) (VHH)
VHH: QVQLQENGGGLVKPGGSLRLSCAASGFTLSDYVMTWVRQAPGKGPEWVSRISAGGSTRYVDSVKGRFTISRDNAKNTMYLQMNSLKPEDTAVYYCARGSTLFSTNWDYRGQGTQVMVS
notes: Nb 3A02 with three stated mutations; the mutated chain is in PDB 9H77; also called Gb; not shown: His tag, N-terminal, cleaved
B8: YNMAGEB1A-c001 (VHH)
VHH: QVQLQESGGGLVQAGGSLRLSCAASGFTFDDYAIGWFRQVPGKEREGVSCTSSSVGSTYYADSVKGRFTITSDNAKNTVYLQMNSLKPEDTAVYYCAADSYPYGSTWCRPPFFASWGQGTQVTVS
B9: RECQL5 nanobody variant G1-001 (VHH)
VHH: QVQLQESGGGLVQAGGSLRLSCAASGSIFSINRMGWYRQAPGKQRELVAAITSGGSTNYAYSVKGRFTISRDNAKNTVYLQMNSLKPEDTAIYYCEAYGTYTLAPTGEGEYDDYWGQGTQVTVSA
notes: the mutated chain is in PDB 7ZML; numbers count on: IMGT numbering; six-residue tail left after TEV cleavage of the C-terminal 6xHis tag; vector pNIC-CTH0; source: E. coli KRX, purified (Ni-NTA, TEV cleavage, reverse Ni-NTA); not shown: His6, C-terminal, cleaved
B10: RECQL5 nanobody variant G2-001 (VHH)
VHH: B9 VHH with S7N, L11C
notes: as the chain of m3 (G1-001, D69Y) with S7N:L12C; the mutated chain is in PDB 7ZMM; numbers count on: IMGT numbering; six-residue tail left after TEV cleavage of the C-terminal 6xHis tag; vector pNIC-CTH0; made by mutagenesis from G1-001; source: E. coli KRX, purified (Ni-NTA, TEV cleavage, reverse Ni-NTA); not shown: His6, C-terminal, cleaved

Columns and labels:
[1] = molecular target: T1, MAGEB1 (UniProt P43366); test: crystal structure; nanobody-target complex in two commercial coarse screens (192 conditions, two temperatures); settings: both partners purified
T1 construct: MAGEB1

[2] = molecular target: T2, truncated RECQL5 protein (11-453) (UniProt O94762); test: crystal structure; RECQL5 and nanobody mixed 1:1.5, complex isolated by SEC, Hampton Index screen; molecular replacement with PDB 5LB8 and chain A of 2X1O; settings: both partners purified
T2 construct: RECQL5, residues 11-453, in pNIC-Bsa4; source: E. coli BL21-DE3-pRARE, purified (Ni-NTA, TEV cleavage, reverse Ni-NTA); not shown: His6, N-terminal, cleaved

[3] = molecular target: T3, MPP8 chromodomain (residues 53-117) (UniProt Q99549); test: crystal structure; MPP8 and 3A02 gluebody combined 1:1.2, complex isolated on Superdex 75 in 20 mM Hepes pH 7.5, 80 mM NaCl; vapor diffusion at 18 °C, 100 mM sodium acetate, 25% PEG 3000; settings: both partners purified
T3 construct: MPP8, the region corresponding to the chromodomain, residues 53-117, in a modified pET30 vector; not shown: His tag, N-terminal, cleaved

[4] = molecular target: T1, MAGEB1
[5] = molecular target: T2, truncated RECQL5 protein (11-453); test: SEC; purified nanobody variants run with RECQL5 on size exclusion chromatography; comigration; settings: both partners purified

T2 sequence (O94762 11-453): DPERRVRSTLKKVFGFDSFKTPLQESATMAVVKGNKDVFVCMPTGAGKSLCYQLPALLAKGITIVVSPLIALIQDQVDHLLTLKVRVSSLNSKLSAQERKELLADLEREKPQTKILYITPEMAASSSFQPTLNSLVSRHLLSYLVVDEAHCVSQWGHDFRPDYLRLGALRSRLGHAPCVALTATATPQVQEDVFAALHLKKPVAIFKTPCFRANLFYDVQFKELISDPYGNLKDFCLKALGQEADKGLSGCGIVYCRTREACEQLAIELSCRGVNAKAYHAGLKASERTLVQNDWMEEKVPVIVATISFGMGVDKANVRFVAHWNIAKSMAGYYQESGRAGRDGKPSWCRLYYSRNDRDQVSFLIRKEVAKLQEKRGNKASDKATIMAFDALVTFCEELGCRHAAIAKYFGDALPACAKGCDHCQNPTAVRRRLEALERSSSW
T1 sequence (P43366 whole entry): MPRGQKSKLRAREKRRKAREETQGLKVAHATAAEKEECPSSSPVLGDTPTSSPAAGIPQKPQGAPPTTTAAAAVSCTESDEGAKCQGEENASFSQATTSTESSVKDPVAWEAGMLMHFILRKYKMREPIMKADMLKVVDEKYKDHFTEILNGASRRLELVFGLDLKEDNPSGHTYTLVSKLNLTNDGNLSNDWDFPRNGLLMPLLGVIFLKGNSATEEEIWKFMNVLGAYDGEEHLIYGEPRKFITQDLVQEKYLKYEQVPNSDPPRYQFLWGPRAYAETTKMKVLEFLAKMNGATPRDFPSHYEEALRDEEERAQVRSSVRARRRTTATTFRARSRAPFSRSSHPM
T3 sequence (Q99549 53-117): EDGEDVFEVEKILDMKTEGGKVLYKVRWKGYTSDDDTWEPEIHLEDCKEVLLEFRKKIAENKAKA

Binder | binding result [2] | other results
B1 |  | binding result [1]: binds
B2 | binds | 
B3 | binds | 
B4 | binds | 
B5 | binds | 
B6 | binds | 
B7 |  | binding result [3]: binds
B8 |  | binding result [4]: binds
B9 |  | binding result [5]: binds
B10 | binds | 
